Data: patent US20110039331A1 (OSAKA UNIVERSITY, published 2011)
One block for each molecule: values may come before it.

What was measured:
[1] = molecular target: Flag-tagged Fn (Flag-Fn) (human) (UniProt P02751); assay: SPR (Biacore), Flag-Fn on the chip, M2 antibody flowed over
[2] = molecular target: T1, hGH-BAS-γC-P4×3, human growth factor/human fibrinogen γ chain C domain fusion protein with 3 repeats of the … (human, UniProt P01241 27-217; P02679 169-437); assay: SPR (Biacore X-100), P20.1 antibody-immobilized chip, fusion protein flowed over
T1 construct: also called P4×3-tagged hGH fusion protein

[3] = molecular target: hGH-BAS-γC-P4×5, human growth factor/human fibrinogen γ chain C domain fusion protein with 5 repeats of the … (human, UniProt P01241 27-217; P02679 169-437); assay: as above
[4] = molecular target: T2, tag peptide/F-spondin fusion protein (P4×3, TEV protease cleavage sequence, N-terminal 146-amino-acid domain …); assay: affinity purification from culture supernatant on P20.1 antibody-Sepharose, elution with 40% propylene glycol and 1 M NaCl, SDS gel electrophoresis
T2 construct: Secreted from HEK293T cells; also called recombinant F-spondin protein
T2 chain: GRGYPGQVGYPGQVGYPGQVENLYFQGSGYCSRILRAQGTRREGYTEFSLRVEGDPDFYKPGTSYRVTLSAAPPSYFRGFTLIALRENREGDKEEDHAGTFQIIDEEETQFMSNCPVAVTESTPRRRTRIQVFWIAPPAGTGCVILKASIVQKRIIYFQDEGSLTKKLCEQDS
Procedure: Washing with TBS and eluting with a buffer solution containing 40% propylene glycol and 1 M NaCl were performed, and the resulting effluent was subjected to SDS gel electrophoresis.

[5] = molecular target: T3, P4(C8) peptide (8-residue peptide PRGYPGQV) (human); assay: X-ray crystallography of the complex
T3 peptide: PRGYPGQV

[6] = molecular target: P20.1 antibody (monoclonal antibody produced by mouse-mouse hybridoma P20.1, FERM BP-11061); assay: competitive elution of the P4×3-tagged hGH fusion protein from P20.1 antibody-Sepharose, SDS gel
[7] = molecular target: P20.1 antibody (monoclonal antibody produced by mouse-mouse hybridoma P20.1, FERM BP-11061); assay: competitive dissociation ELISA: free peptide added for 30 minutes to P20.1 antibody bound on coated P4(20)-Fn
[8] = molecular target: P20.1 antibody (monoclonal antibody produced by mouse-mouse hybridoma P20.1, FERM BP-11061); assay: competitive dissociation ELISA: P20.1 antibody bound to coated P4(20)-Fn, free P4(C8) peptide added at the final washing step for 30 minutes; displaced partner P4(20)-Fn

Sequence of Flag-tagged Fn (Flag-Fn) (human) (P02751 other isoform, or with tags, fused parts or gaps limits assumed): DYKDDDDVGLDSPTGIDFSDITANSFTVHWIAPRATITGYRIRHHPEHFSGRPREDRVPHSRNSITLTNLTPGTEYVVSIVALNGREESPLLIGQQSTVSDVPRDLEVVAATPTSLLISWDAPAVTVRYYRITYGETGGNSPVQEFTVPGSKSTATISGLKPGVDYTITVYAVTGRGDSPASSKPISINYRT

Kd [1]: 2.7 nM
koff [1]: 0.000395 s⁻¹
kon [1]: 146000 M⁻¹ s⁻¹
Molecule: commercially available anti-Flag antibody M2

binding result [5]: binds
B2: Fab fragment of the P20.1 antibody (Fab, V domains shown)
VH: QIQLVQSGPEVQKPGETVRISCKASGYTFTTAGMQWVQKMPGKSLKWIGWINTRSGVPKYAEDFKGRFAFSLETSASIAYLHINNLKNEDTATYFCAREGPGFVYWGQGTLVTVSA
VL: QTVVTQESALTTSPGETVTLTCRSSTGVVTTSNYANWVQEKPDHLFTGLIVGTNNRVPGVPPRFSGSLIGDKAALTITGAQTEDEAIYFCALWYSNHWVFGGGTKLTVL
notes: Made by papain digestion of the purified IgG1/lambda antibody; also called P20.1 antibody Fab fragment

Continued, molecule first:

B1: P20.1 antibody (monoclonal antibody produced by mouse-mouse hybridoma P20.1, FERM BP-11061) (antibody, mouse IgG1, V domains shown)
VH: B2 VH
VL: B2 VL
notes: Biotinylated in the sandwich ELISA of 7-2-1 and coupled to CNBr-Sepharose in the pull-down and purification experiments; also called P20.1 Ab; monoclonal P20.1 antibody
fold of the maximum binding capacity against the fusion protein with one repeat [2]: ≥ 4 fold
fold of the maximum binding capacity against the fusion protein with one repeat [3]: ≥ 4 fold
binding result [4]: binds

Molecule: PRGYPGQV [P4(C8) peptide (8-residue peptide PRGYPGQV)]
peptide concentration that elutes the tagged fusion protein [6]: > 0.1 mg/mL
peptide concentration at which almost complete dissociation was confirmed [7]: 0.1 mg/mL
IC50 (read off the curve) [8]: 10 µg/mL
